Measurements published in patent US11278600B2, “Human alpha-galactosidase variants” (Codexis, Inc., priority 2014, dated 2022).
Positions count from the first letter of the chain named.

Key:
Assay type in all cases: biochemical
[1] = HTP-analysis of yeast culture supernatants, no challenge (MUGal hydrolysis); settings: activity of the variant/activity of Rd2BB (SEQ ID NO: 10), yeast culture supernatant
Outline: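 GLA variants expressed in yeast INVSc1, secreted into SD-Ura broth over 66-84 h at 30° C; clarified supernatants tested without challenge. Supernatant mixed with McIlvaine buffer pH 4.8 and 2 mM MUGal (citrate/KCl, pH 4.6), 37° C for 30-180 min, carbonate-quenched, fluorescence Ex 355/Em 448 nm.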

[2] = HTP-analysis of supernatants pretreated with acid (MUGal hydrolysis); settings: challenge at pH 4.2; activity of the variant/activity of Rd2BB (SEQ ID NO: 10); yeast culture supernatant
Outline: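 Fluorescence of MUGal hydrolysis (Ex. 355 nm, Em. 448 nm) is read after sodium carbonate quench. The enzyme source is INVSc1 yeast culture supernatant, first exposed to pH 3.3-4.3 McIlvaine buffer at 37° C. for 1-3 h, then reacted at pH 4.8 for 30-180 minutes.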

[3] = HTP-analysis of supernatants pretreated with base (MUGal hydrolysis); settings: challenge at pH 7.6; activity of the variant/activity of Rd2BB (SEQ ID NO: 10); yeast culture supernatant
Outline: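 GLA variants secreted from yeast INVSc1; culture supernatants pre-incubated with McIlvaine buffer pH 7.0–8.2 or 200 mM bicarbonate pH 9.1–9.7 at 37° C. for 1–18 h. Residual activity: MUGal (4 mM stock) hydrolysis at pH 4.3–4.8, 37° C., 30–180 min, carbonate quench; fluorescence Ex 355/Em 448 nm.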

[4] = HTP-analysis of supernatants pretreated with bovine serum (MUGal hydrolysis); settings: activity of the variant/activity of Rd2BB (SEQ ID NO: 10), yeast culture supernatant
Description: Yeast (INVSc1) cells transformed with vectors expressing GLA and GLA variants using the lithium acetate method were selected on SD-Ura agar plates. After 72 h incubation at 30° C. colonies were placed into the wells of Axygen® 1.1 ml 96-well deep well plates filled with 200 μl/well SD-Ura broth (2 g/L SD-Ura, 6.8 g/L yeast nitrogen base without amino acids [Sigma Aldrich]), 3.06 g/L sodium dihydrogen phosphate, 0.804 g/L disodium hydrogen phosphate, pH 6.0 supplemented with 6% glucose. The cells were allowed to grow for 20-24 hours in a Kuhner shaker (250 rpm, 30° C., and 85% relative humidity). Overnight culture samples (20 μL) were transferred into Corning Costar® 96-well deep plates filled with 380 µL of SD-ura broth supplemented with 2% glucose. The plates were incubated for 66-84 h in a Kuhner shaker (250 rpm, 30° C., and 85% relative humidity). The cells were then pelleted (4000 rpm×20 min), and the supernatants isolated and stored at 4° C. prior to analysis.
GLA variants were challenged with bovine serum to simulate the conditions the variants encounter following infusion into a patient. First, 20 μL of yeast culture supernatant and 80 μL, of bovine serum were added to the wells of a 96-well round bottom plate. The plates were sealed and incubated at 37° C. for 1 h. For the assay, 50 μL of serum-challenged sample was mixed with 25 μL, of 1 M citrate buffer pH 4.3 and 25 μL, of 4 mM MUGal in McIlvaine buffer pH 4.8. The reactions were mixed briefly and incubated at 37° C. for 180 minutes, prior to quenching with 100 μL, of 1 M sodium carbonate. Hydrolysis was analyzed using a SpectraMax® M2 microplate reader monitoring fluorescence (Ex. 355 nm, Em. 448 nm).

B1: 245 (protein)
chain: LDNGLARTPTMGWLHWERFMCNLDCQEEPDSCISEKLFMEMAELMVSEGWKDAGYEYLCIDDCWMAPQRDSEGRLQADPQRFPHGIRQLANYVHSKGLKLGIYADVGNKTCAGFPGSFGYYDIDAQTFADWGVDLLKFDGCYCDSLENLADGYKHMSLALNRTGRSIVYSCEWPLYMWPFQKPNYTEIRQYCNHWRNFADIDDSWASIKSILDWTSFNQERIVDVAGPGGWNDPDMLVIGNFGLSWDQQVTQMALWAIMAAPLFMSNDLRHISPQAKALLQDKDVIAINQDPLGKQGYQLRKGDNFEVWERPLSGLAWAVAVINRQEIGGPRSYTIAVASLGKGVACNPACFITQLLPVKRKLGLYEWTSRLKSHVNPTGTVLLQLENTMQMSLKDLL
modifications: Synthetic Polypeptide sequence of Variant No. 245 of mature Human GLA
With B1 the “Relative Activity of GLA Variants After No Challenge (NC)” value [1] was “++ (++ = 1.5 to 2.5 relative activity over Rd2BB (SEQ ID NO: 10))”, the “Relative Activity of GLA Variants After Challenge at pH 4.2” value (“Relative Activity … at pH 4.2” below) [2] was “+++ (+++ = >2.5 relative activity over Rd2BB (SEQ ID NO: 10))” and the “Relative Activity of GLA Variants After Challenge at pH 7.6” value (“Relative Activity … at pH 7.6” below) [3] was “+++ (+++ = >2.5 relative activity over Rd2BB (SEQ ID NO: 10))”. For the same molecule, the “Relative Activity of GLA Variants After Challenge with Serum” value (“Relative Activity … with Serum” below) [4] was “++ (++ = 1.5 to 2.5 relative activity over Rd2BB (SEQ ID NO: 10))”.

B2: 251 (protein)
chain: B1 chain with K96I, F217R, K302Q, V322M, L365F, K373R, V376I
modifications: Synthetic Polypeptide sequence of Variant No. 251 of mature Human GLA
In the case of B2, the “Relative Activity of GLA Variants After No Challenge (NC)” value [1] is reported as “++ (++ = 1.5 to 2.5 relative activity over Rd2BB (SEQ ID NO: 10))”, the “Relative Activity … at pH 4.2” value [2] is reported as “+ (+ = 0.5 to 1.5 relative activity over Rd2BB (SEQ ID NO: 10))” and the “Relative Activity … at pH 7.6” value [3] is reported as “++ (++ = 1.5 to 2.5 relative activity over Rd2BB (SEQ ID NO: 10))”. The “Relative Activity … with Serum” value [4] was “+ (+ = 0.5 to 1.5 relative activity over Rd2BB (SEQ ID NO: 10))”.

B3: 252 (protein)
chain: B1 chain with K96I, K302Q, V322M, A350G, L365F, E367D, T369D, K373R, V376I
modifications: Synthetic Polypeptide sequence of Variant No. 252 of mature Human GLA
With B3 the “Relative Activity of GLA Variants After No Challenge (NC)” value [1] was “+++ (+++ = >2.5 relative activity over Rd2BB (SEQ ID NO: 10))”, the “Relative Activity … at pH 4.2” value [2] was “+++ (+++ = >2.5 relative activity over Rd2BB (SEQ ID NO: 10))” and the “Relative Activity … at pH 7.6” value [3] was “+++ (+++ = >2.5 relative activity over Rd2BB (SEQ ID NO: 10))”. The “Relative Activity … with Serum” value [4] was “+++ (+++ = >2.5 relative activity over Rd2BB (SEQ ID NO: 10))”.

B4: 247 (protein)
chain: B1 chain with R221K, K302Q, K343D, L365F, V376I
modifications: Synthetic Polypeptide sequence of Variant No. 247 of mature Human GLA
For B4, the “Relative Activity of GLA Variants After No Challenge (NC)” value [1] was “+++ (+++ = >2.5 relative activity over Rd2BB (SEQ ID NO: 10))”, the “Relative Activity … at pH 4.2” value [2] was “+++ (+++ = >2.5 relative activity over Rd2BB (SEQ ID NO: 10))” and the “Relative Activity … at pH 7.6” value [3] was “+++ (+++ = >2.5 relative activity over Rd2BB (SEQ ID NO: 10))”. For the same molecule, the “Relative Activity … with Serum” value [4] was “+++ (+++ = >2.5 relative activity over Rd2BB (SEQ ID NO: 10))”.

B5: 250 (protein)
chain: B1 chain with K96I, F217R, D247N, K302Q, V322M, L365F, K373R, V376I
modifications: Synthetic Polypeptide sequence of Variant No. 250 of mature Human GLA
For B5, the “Relative Activity of GLA Variants After No Challenge (NC)” value [1] was “+ (+ = 0.5 to 1.5 relative activity over Rd2BB (SEQ ID NO: 10))”, the “Relative Activity … at pH 4.2” value [2] was “+ (+ = 0.5 to 1.5 relative activity over Rd2BB (SEQ ID NO: 10))” and the “Relative Activity … at pH 7.6” value [3] was “+ (+ = 0.5 to 1.5 relative activity over Rd2BB (SEQ ID NO: 10))”. The “Relative Activity … with Serum” value [4] was “+ (+ = 0.5 to 1.5 relative activity over Rd2BB (SEQ ID NO: 10))”.

B6: 248 (protein)
chain: B1 chain with R221T, D247N, K302Q, K343G, L365F, V376I
modifications: Synthetic Polypeptide sequence of Variant No. 248 of mature Human GLA
In the case of B6, the “Relative Activity of GLA Variants After No Challenge (NC)” value [1] is reported as “+ (+ = 0.5 to 1.5 relative activity over Rd2BB (SEQ ID NO: 10))”, the “Relative Activity … at pH 4.2” value [2] is reported as “+ (+ = 0.5 to 1.5 relative activity over Rd2BB (SEQ ID NO: 10))” and the “Relative Activity … at pH 7.6” value [3] is reported as “+ (+ = 0.5 to 1.5 relative activity over Rd2BB (SEQ ID NO: 10))”. For the same molecule, the “Relative Activity … with Serum” value [4] was “+ (+ = 0.5 to 1.5 relative activity over Rd2BB (SEQ ID NO: 10))”.

B7: 246 (protein)
chain: B1 chain with D247N, L316D, V322M, A337P, L365F, K373R, V376I
modifications: Synthetic Polypeptide sequence of Variant No. 246 of mature Human GLA
With B7 the “Relative Activity of GLA Variants After No Challenge (NC)” value [1] was “+++ (+++ = >2.5 relative activity over Rd2BB (SEQ ID NO: 10))”, the “Relative Activity … at pH 4.2” value [2] was “+++ (+++ = >2.5 relative activity over Rd2BB (SEQ ID NO: 10))” and the “Relative Activity … at pH 7.6” value [3] was “+++ (+++ = >2.5 relative activity over Rd2BB (SEQ ID NO: 10))”. The “Relative Activity … with Serum” value [4] was “+++ (+++ = >2.5 relative activity over Rd2BB (SEQ ID NO: 10))”.

B8: 253 (protein)
chain: B1 chain with K96I, L316D, V322M, A337P, L365F, E367D, T369D, K373R, V376I
modifications: Synthetic Polypeptide sequence of Variant No. 253 of mature Human GLA
With B8 the “Relative Activity of GLA Variants After No Challenge (NC)” value [1] was “+++ (+++ = >2.5 relative activity over Rd2BB (SEQ ID NO: 10))”, the “Relative Activity … at pH 4.2” value [2] was “+++ (+++ = >2.5 relative activity over Rd2BB (SEQ ID NO: 10))” and the “Relative Activity … at pH 7.6” value [3] was “+++ (+++ = >2.5 relative activity over Rd2BB (SEQ ID NO: 10))”. For the same molecule, the “Relative Activity … with Serum” value [4] was “+++ (+++ = >2.5 relative activity over Rd2BB (SEQ ID NO: 10))”.

B9: 249 (protein)
chain: B1 chain with R221T, D247N, K302Q, L365F, V376I
modifications: Synthetic Polypeptide sequence of Variant No. 249 of mature Human GLA
With B9 the “Relative Activity of GLA Variants After No Challenge (NC)” value [1] was “++ (++ = 1.5 to 2.5 relative activity over Rd2BB (SEQ ID NO: 10))”, the “Relative Activity … at pH 4.2” value [2] was “++ (++ = 1.5 to 2.5 relative activity over Rd2BB (SEQ ID NO: 10))” and the “Relative Activity … at pH 7.6” value [3] was “+++ (+++ = >2.5 relative activity over Rd2BB (SEQ ID NO: 10))”. The “Relative Activity … with Serum” value [4] was “++ (++ = 1.5 to 2.5 relative activity over Rd2BB (SEQ ID NO: 10))”.

B10: 254 (protein)
chain: B1 chain with L100F, D247N, K302Q, V322M, L365F, K373R, V376I
modifications: Synthetic Polypeptide sequence of Variant No. 254 of mature Human GLA
With B10 the “Relative Activity of GLA Variants After No Challenge (NC)” value [1] was “+ (+ = 0.5 to 1.5 relative activity over Rd2BB (SEQ ID NO: 10))”, the “Relative Activity … at pH 4.2” value [2] was “+ (+ = 0.5 to 1.5 relative activity over Rd2BB (SEQ ID NO: 10))” and the “Relative Activity … at pH 7.6” value [3] was “+ (+ = 0.5 to 1.5 relative activity over Rd2BB (SEQ ID NO: 10))”. The “Relative Activity … with Serum” value [4] was “+ (+ = 0.5 to 1.5 relative activity over Rd2BB (SEQ ID NO: 10))”.
